Measured values: publication PMC10840093
Like-named read-outs stand apart in the source and are kept apart here.

Measured: degradation_or_half_life

LSD1: LSD1-3KR (K424, K432, K481)
decreases: ubiquitination at K424 | ubiquitination at K432 | ubiquitination at K481
